{"source": "patent US20240117012A1", "about": "(KAO, published 2024)", "binders": {"B1": {"name": "His-tagged CoVHH-N1 (VHH)", "VHH": "EVQLVESGGAVVQPGGSLRLSCEASGFPFTKFWMYWVRRAPGKGLEWVAFIDTTGTITNYASSVKGRFTISRDDARNMVYLQMNDLRPEDTAIYYCATGPPGSTWVVDFHSWGQGTQVTVSS", "notes": "also called CoVHH-N1 (His-tagged)"}, "B2": {"name": "His-tagged CoVHH-N2 (VHH)", "VHH": "EVQLVESGGGSVQAGGSLTLSCAASGFTFDDHAVGWFRQAPGKGLEWVSAISGDGYTTVYADSVKGRFTISRDNAKKTVYLQMNSLKAEDTAVYYCNAFRTDIVREYWGQGTQVTVSS", "notes": "also called CoVHH-N2 (His-tagged)"}}, "key": {"[1]": {"molecular_target": "T1, SARS-CoV-2 Nucleocapsid-Fc fusion protein (SARS-CoV-2, UniProt P0DTC9 1-419)", "T1 construct": "also called Fc-tagged N-protein", "assay": "CoVHH-N1"}, "[2]": {"molecular_target": "T1, SARS-CoV-2 Nucleocapsid-Fc fusion …"}, "[3]": {"molecular_target": "T1, SARS-CoV-2 Nucleocapsid-Fc fusion …", "assay": "CoVHH-N2"}}, "note": "Read-outs that look alike come from different tables or passages of the source."}
{"binder": "B1", "values": [{"measurement": "koff", "setting": "[1]", "result": 0.0017, "unit": "s⁻¹"}, {"measurement": "kon", "setting": "[1]", "result": "3.02e+06", "unit": "M⁻¹ s⁻¹"}, {"measurement": "Kd", "setting": "[2]", "result": 0.564, "unit": "nM"}]}
{"binder": "B2", "values": [{"measurement": "Kd", "setting": "[3]", "result": 2.09, "unit": "nM"}, {"measurement": "koff", "setting": "[3]", "result": 0.0009, "unit": "s⁻¹"}, {"measurement": "kon", "setting": "[3]", "result": 430000, "unit": "M⁻¹ s⁻¹"}]}
